Paper PMC9482650, “Quantitative fragmentomics allow affinity mapping of interactomes” (Nature Communications, 2022)

Tested on: HEK293T cells
Test: Label-free MS proteome of stable cell lines expressing HPV16 E6 or E6ΔPBM
Type: cell-based, human
Conditions: source data of Figure 6 D, IRES control line about 1; for p53 relative protein level: stable HEK293T cell line expressing the construct; for AHNAK relative protein level / LIN7C relative protein level / MPP6 relative protein level / SNX27 relative protein level: stable HEK293T cell line
Protocol: HEK293T and HeLa cells were authenticated and found 100% identity to ATCC cat. CRL-3216 and ATCC cat. CCL-2, respectively. Jurkat and HaCat cell lines were not authenticated (original source: ECACC and Deutsches Krebsforschungszentrum DKFZ, respectively). HeLa cells were grown in DMEM (1 g/L glucose, Gibco) medium completed with 5% FCS and 40 μg/mL gentamicin, diluted every 3rd/4th day 1/10. HaCat cells were grown in DMEM (1 g/L glucose, Gibco) medium completed with 10% FCS and 40 μg/mL gentamicin, diluted every 3rd/4th day 1/4. Jurkat cells were grown in RPMI (Gibco) medium completed with 10% FCS and 40 μg/mL gentamicin, diluted every 3rd/4th day 1/12. All cells were kept at 37 °C and 5% CO2. For proteomics analyses cells were seeded on T-175 flasks. After they reached confluency, adherent cells were washed with PBS once and collected by scraping with ice-cold lysis buffer (Hepes-KOH pH 7.5 50 mM, NaCl 150 mM, Triton X-100 1%, complete EDTA-free protease inhibitor cocktail 1×, EDTA 2 mM, TCEP 5 mM, glycerol 10%). Jurkat cells were collected by 1000 g × centrifugation, washed once with PBS, then collected by 1000 g × 5 min centrifugation again and lysed in ice-cold lysis buffer. Lysates were sonicated 4 × 20 s with 1 s long pulses on ice, then incubated rotating at 4 °C for 30 min. Lysates were centrifuged at 12,000 rpm 4 °C for 20 min and supernatant was kept for further analysis. Concentration determination was carried out by standard Bradford method (Bio-Rad Protein Assay Dye Reagent #5000006) using BSA (MP BIomedicals #160069) as control on a Bio-Rad SmartSpec 3000 spectrophotometer instrument.
The samples were precipitated with TCA 20% overnight at 4 °C and centrifuged at 14,000 rpm for 10 min at 4 °C. The protein pellets were washed twice with 1 mL cold acetone and air dried. The protein extracts were solubilized in urea 8 M, reduced with 5 mM TCEP for 30 min, and alkylated with 10 mM iodoacetamide for 30 min in the dark. Double digestion was performed at 37 °C with 500 ng endoproteinase Lys-C for 4 h, followed by fourfold dilution and an overnight digestion with 500 ng trypsin. Peptide mixtures were then desalted on C18 spin-column and dried on Speed-Vacuum.
Samples were analyzed using an Ultimate 3000 nano-RSLC (Thermo Scientific, San Jose California) coupled in line with a LTQ-Orbitrap ELITE mass spectrometer via a nano-electrospray ionization source (Thermo Scientific, San Jose California). Peptide mixtures were injected in 0.1% TFA on a C18 Acclaim PepMap100 trap-column (75 µm ID × 2 cm, 3 µm, 100 Å, Thermo Fisher Scientific) for 3 min at 5 µL/min with 2% ACN, 0.1% FA in H2O and then separated on a C18 Accucore nano-column (75 µm ID × 50 cm, 2.6 µm, 150 Å, Thermo Fisher Scientific) at 220 nl/min and 38 °C with a 90 min linear gradient from 5% to 30% buffer B (A: 0.1% FA in H2O/B: 99% ACN, 0.1% FA in H2O), regeneration at 5% B. The mass spectrometer was operated in positive ionization mode, in data-dependent mode with survey scans from m/z 350–1500 acquired in the Orbitrap at a resolution of 120,000 at m/z 400. The 20 most intense peaks from survey scans were selected for further fragmentation in the Linear Ion Trap with an isolation window of 2.0 Da and were fragmented by CID with normalized collision energy of 35%. (TOP20CID method) Unassigned and single charged states were excluded from fragmentation. The Ion Target Value for the survey scans (in the Orbitrap) and the MS2 mode (in the Linear Ion Trap) were set to 1E6 and 5E3 respectively and the maximum injection time was set to 100 ms for both scan modes. Dynamic exclusion was set to 20 s after one repeat count with mass width at ±10 ppm.
Proteins were identified by database searching using SequestHT (Thermo Fisher Scientific) with Proteome Discoverer 2.4 software (PD2.4, Thermo Fisher Scientific) on human FASTA database downloaded from SwissProt (reviewed, release 2020_11_27, 20304 entries, https://www.uniprot.org/). […]

B1: E6: wild-type HPV16 E6 oncoprotein stably expressed in HEK293T cells (protein, UniProt P03126 1-158, looked up)
chain: MHQKRTAMFQDPQERPRKLPQLCTELQTTIHDIILECVYCKQQLLRREVYDFAFRDLCIVYRDGNPYAVCDKCLKFYSKISEYRHYCYSLYGTTLEQQYNKPLCDLLIRCINCQKPLCPEEKQRHLDKKQRFHNIRGRWTGRCMSCCRSSRTRRETQL
modifications: full-length
notes: wild-type HPV16 E6 oncoprotein stably expressed in HEK293T cells
Replicate 1
  p53 relative protein level: 0.1537
  AHNAK relative protein level: 0.9544
  LIN7C relative protein level: 0.7333
  MPP6 relative protein level: 0.8283
  SNX27 relative protein level: 0.8078
Replicate 2
  p53 relative protein level: 0.2546
  AHNAK relative protein level: 0.9923
  LIN7C relative protein level: 0.764
  MPP6 relative protein level: 0.8646
  SNX27 relative protein level: 1.3738
Replicate 3
  p53 relative protein level: 0.1997
  AHNAK relative protein level: 1.222
  LIN7C relative protein level: 1.025
  MPP6 relative protein level: 0.4141
  SNX27 relative protein level: 1.15
